{
  "source": "patent US20070105796",
  "proteins": {"B1": {"name": "N-terminal HA-tagged inactive MAPKAPK3 (T201A/T313A) (protein)", "chain": "MDGETAEEQGGPVPPPVAPGGPGLGGAPGGRREPKKYAVTDDYQLSKQVLGLGVNGKVLECFHRRTGQKCALKLLYDSPKARQEVDHHWQASGGPHIVCILDVYENMHHGKRCLLIIMECMEGGELFSRIQERGDQAFTEREAAEIMRDIGTAIQFLHSHNIAHRDVKPENLLYTSKEKDAVLKLTDFGFAKETTQNALQAPCYTPYYVAPEVLGPEKYDKSCDMWSLGVIMYILLCGFPPFYSNTGQAISPGMKRRIRLGQYGFPNPEWSEVSEDAKQLIRLLLKTDPTERLTITQFMNHPWINQSMVVPQAPLHTARVLQEDKDHWDEVKEEMTSALATMRVDYDQVKIKDLKTSNNRLLNKRRKKQAGSSSASQGCNNQ"}, "B2": {"name": "GST fusion MAPKAPK3 (N-terminal GST fusion human MAPKAPK3) (protein)", "chain": "B1 chain with A201T, A313T"}, "B3": {"name": "GST fusion inactive MAPKAPK3 (T201A/T313A) (protein)", "chain": "B1 chain"}, "B4": {"name": "N-terminal HA-tagged active MAPKAPK3 (T201E/T313E) (protein)", "chain": "B1 chain with A201E, A313E"}, "B5": {"name": "N-terminal HA-tagged MAPKAPK3 (protein)", "chain": "B1 chain with A201T, A313T"}, "B6": {"name": "GST fusion active MAPKAPK3 (T201E/T313E) (protein)", "chain": "B1 chain with A201E, A313E"}},
  "note": "Numbering of substitutions follows the chain as printed. Names and notes keep the numbering of the source.",
  "data": [
    {"target": "HSP27 (small heat shock protein 27), P04792", "sequence (P04792 whole entry)": "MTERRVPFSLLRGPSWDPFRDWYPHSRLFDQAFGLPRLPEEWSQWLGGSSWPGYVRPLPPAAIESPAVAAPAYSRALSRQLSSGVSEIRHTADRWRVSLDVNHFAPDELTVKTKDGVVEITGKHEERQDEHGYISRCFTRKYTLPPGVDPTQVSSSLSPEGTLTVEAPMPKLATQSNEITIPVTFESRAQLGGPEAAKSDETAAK", "values": [
      {"protein": "B1", "kinase activity (immune-complex kinase assay, phosphorylation of HSP27)": "the kinase activity was observed only in an active MAPKAPK3"},
      {"protein": "B2", "kinase activity (phosphorylation of HSP27 with [gamma-32P]ATP, autoradiography)": "the kinase activity was observed only in an active MAPKAPK3"},
      {"protein": "B3", "kinase activity (phosphorylation of HSP27 with [gamma-32P]ATP, autoradiography)": "the kinase activity was observed only in an active MAPKAPK3"},
      {"protein": "B4", "kinase activity (immune-complex kinase assay, phosphorylation of HSP27)": "the kinase activity was observed only in an active MAPKAPK3"},
      {"protein": "B5", "kinase activity (immune-complex kinase assay, phosphorylation of HSP27)": "the kinase activity was observed only in an active MAPKAPK3"},
      {"protein": "B6", "kinase activity (phosphorylation of HSP27 with [gamma-32P]ATP, autoradiography)": "the kinase activity was observed only in an active MAPKAPK3"}
    ]}
  ]
}
